What was measured:
not read = substrate: N[C@@H](CCC(=O)N[C@@H](CS)C(=O)NCC(=O)O)C(=O)O; assay: not read
[1] = substrate: N[C@@H](CCC(=O)N[C@@H](CSSC[C@H](NC(=O)CC[C@H](N)C(=O)O)C(=O)NCC(=O)O)C(=O)NCC(=O)O)C(=O)O; assay: Activity of MRP1

B1: Multidrug resistance-associated protein 1 (Homo sapiens) (protein)
chain: MALRGFCSADGSDPLWDWNVTWNTSNPDFTKCFQNTVLVWVPCFYLWACFPFYFLYLSRHDRGYIQMTPLNKTKTALGFLLWIVCWADLFYSFWERSRGIFLAPVFLVSPTLLGITMLLATFLIQLERRKGVQSSGIMLTFWLVALVCALAILRSKIMTALKEDAQVDLFRDITFYVYFSLLLIQLVLSCFSDRSPLFSETIHDPNPCPESSASFLSRITFWWITGLIVRGYRQPLEGSDLWSLNKEDTSEQVVPVLVKNWKKECAKTRKQPVKVVYSSKDPAQPKESSKVDANEEVEALIVKSPQKEWNPSLFKVLYKTFGPYFLMSFFFKAIHDLMMFSGPQILKLLIKFVNDTKAPDWQGYFYTVLLFVTACLQTLVLHQYFHICFVSGMRIKTAVIGAVYRKALVITNSARKSSTVGEIVNLMSVDAQRFMDLATYINMIWSAPLQVILALYLLWLNLGPSVLAGVAVMVLMVPVNAVMAMKTKTYQVAHMKSKDNRIKLMNEILNGIKVLKLYAWELAFKDKVLAIRQEELKVLKKSAYLSAVGTFTWVCTPFLVALCTFAVYVTIDENNILDAQTAFVSLALFNILRFPLNILPMVISSIVQASVSLKRLRIFLSHEELEPDSIERRPVKDGGGTNSITVRNATFTWARSDPPTLNGITFSIPEGALVAVVGQVGCGKSSLLSALLAEMDKVEGHVAIKGSVAYVPQQAWIQNDSLRENILFGCQLEEPYYRSVIQACALLPDLEILPSGDRTEIGEKGVNLSGGQKQRVSLARAVYSNADIYLFDDPLSAVDAHVGKHIFENVIGPKGMLKNKTRILVTHSMSYLPQVDVIIVMSGGKISEMGSYQELLARDGAFAEFLRTYASTEQEQDAEENGVTGVSGPGKEAKQMENGMLVTDSAGKQLQRQLSSSSSYSGDISRHHNSTAELQKAEAKKEETWKLMEADKAQTGQVKLSVYWDYMKAIGLFISFLSIFLFMCNHVSALASNYWLSLWTDDPIVNGTQEHTKVRLSVYGALGISQGIAVFGYSMAVSIGGILASRCLHVDLLHSILRSPMSFFERTPSGNLVNRFSKELDTVDSMIPEVIKMFMGSLFNVIGACIVILLATPIAAIIIPPLGLIYFFVQRFYVASSRQLKRLESVSRSPVYSHFNETLLGVSVIRAFEEQERFIHQSDLKVDENQKAYYPSIVANRWLAVRLECVGNCIVLFAALFAVISRHSLSAGLVGLSVSYSLQVTTYLNWLVRMSSEMETNIVAVERLKEYSETEKEAPWQIQETAPPSSWPQVGRVEFRNYCLRYREDLDFVLRHINVTINGGEKVGIVGRTGAGKSSLTLGLFRINESAEGEIIIDGINIAKIGLHDLRFKITIIPQDPVLFSGSLRMNLDPFSQYSDEEVWTSLELAHLKDFVSALPDKLDHECAEGGENLSVGQRQLVCLARALLRKTKILVLDEATAAVDLETDDLIQSTIRTQFEDCTVLTIAHRLNTIMDYTRVIVLDKGEIQEYGAPSDLLQQRGLFYSMAKDAGLV
Km (not read): 5000 µM
Km [1]: 93 µM

Reference: ChEMBL document CHEMBL1140936, “Topological polar surface area defines substrate transport by multidrug resistance associated protein 1 (MRP1/ABCC1)” (J Med Chem, 2009)
